In patent publication US20140072613A1, “Compositions and Methods for Treating Cutaneous Scarring” (priority 2012, published 2014):

Key:
Assay in all cases: cell-based or functional assay
BRK(h) (human) = BRK(h) (human) (UniProt Q13882)
CDK2/cyclinE(h) (human) = CDK2/cyclinE(h) (human) (UniProt P24941)
CHK2(R145W)(h) (human) = CHK2(R145W)(h) (human) (UniProt O96017)
[1] = target: EGFR(T790M,L858R)(h) (human) (UniProt P00533)
EphA5(h) (human) = target: T1, EphA5(h) (human) (UniProt P54756)
T1 sequence (looked up): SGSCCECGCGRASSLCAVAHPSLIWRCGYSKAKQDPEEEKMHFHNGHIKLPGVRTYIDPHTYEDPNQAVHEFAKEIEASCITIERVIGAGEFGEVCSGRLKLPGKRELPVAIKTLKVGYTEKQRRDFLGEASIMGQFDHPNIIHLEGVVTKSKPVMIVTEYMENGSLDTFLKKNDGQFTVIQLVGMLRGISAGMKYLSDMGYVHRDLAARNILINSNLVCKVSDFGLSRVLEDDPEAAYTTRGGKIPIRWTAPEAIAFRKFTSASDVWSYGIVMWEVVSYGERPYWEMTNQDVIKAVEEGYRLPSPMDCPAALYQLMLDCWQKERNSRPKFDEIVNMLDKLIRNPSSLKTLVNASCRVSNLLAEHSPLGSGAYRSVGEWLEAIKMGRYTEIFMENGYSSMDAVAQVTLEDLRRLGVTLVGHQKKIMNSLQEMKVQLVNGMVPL

EphB2(h) (human) = EphB2(h) (human) (UniProt P29323)
EphB2(h) (human), sequence (P29323 565-986 limits assumed): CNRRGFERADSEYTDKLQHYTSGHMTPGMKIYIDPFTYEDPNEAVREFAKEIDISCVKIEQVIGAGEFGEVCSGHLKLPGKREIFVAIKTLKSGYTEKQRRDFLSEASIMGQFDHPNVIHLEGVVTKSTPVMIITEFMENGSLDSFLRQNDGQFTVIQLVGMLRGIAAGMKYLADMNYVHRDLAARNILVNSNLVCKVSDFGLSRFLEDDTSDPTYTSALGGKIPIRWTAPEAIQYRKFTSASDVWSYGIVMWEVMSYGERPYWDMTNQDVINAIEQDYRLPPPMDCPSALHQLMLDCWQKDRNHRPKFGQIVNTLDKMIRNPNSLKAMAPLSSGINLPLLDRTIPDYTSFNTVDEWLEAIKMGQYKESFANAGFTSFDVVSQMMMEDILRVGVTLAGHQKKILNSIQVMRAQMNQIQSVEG

Fyn(h) (human) = Fyn(h) (human) (UniProt P06241)
Fyn(h) (human), sequence (P06241 whole entry): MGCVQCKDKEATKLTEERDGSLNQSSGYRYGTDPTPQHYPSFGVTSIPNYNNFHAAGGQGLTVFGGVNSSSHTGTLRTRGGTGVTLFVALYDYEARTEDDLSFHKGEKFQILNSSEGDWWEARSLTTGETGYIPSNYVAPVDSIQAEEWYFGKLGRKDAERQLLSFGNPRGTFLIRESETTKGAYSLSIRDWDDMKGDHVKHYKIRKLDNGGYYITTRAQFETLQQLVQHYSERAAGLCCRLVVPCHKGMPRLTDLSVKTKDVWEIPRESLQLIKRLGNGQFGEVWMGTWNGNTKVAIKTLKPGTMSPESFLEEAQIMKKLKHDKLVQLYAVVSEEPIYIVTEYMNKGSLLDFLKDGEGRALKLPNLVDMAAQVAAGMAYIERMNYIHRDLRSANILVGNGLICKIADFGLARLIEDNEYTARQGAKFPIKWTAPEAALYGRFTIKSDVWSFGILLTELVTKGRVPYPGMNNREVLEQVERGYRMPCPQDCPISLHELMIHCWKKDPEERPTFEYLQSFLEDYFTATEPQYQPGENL

GRK6(h) (human) = GRK6(h) (human) (UniProt P43250)
GRK6(h) (human), sequence (P43250 whole entry): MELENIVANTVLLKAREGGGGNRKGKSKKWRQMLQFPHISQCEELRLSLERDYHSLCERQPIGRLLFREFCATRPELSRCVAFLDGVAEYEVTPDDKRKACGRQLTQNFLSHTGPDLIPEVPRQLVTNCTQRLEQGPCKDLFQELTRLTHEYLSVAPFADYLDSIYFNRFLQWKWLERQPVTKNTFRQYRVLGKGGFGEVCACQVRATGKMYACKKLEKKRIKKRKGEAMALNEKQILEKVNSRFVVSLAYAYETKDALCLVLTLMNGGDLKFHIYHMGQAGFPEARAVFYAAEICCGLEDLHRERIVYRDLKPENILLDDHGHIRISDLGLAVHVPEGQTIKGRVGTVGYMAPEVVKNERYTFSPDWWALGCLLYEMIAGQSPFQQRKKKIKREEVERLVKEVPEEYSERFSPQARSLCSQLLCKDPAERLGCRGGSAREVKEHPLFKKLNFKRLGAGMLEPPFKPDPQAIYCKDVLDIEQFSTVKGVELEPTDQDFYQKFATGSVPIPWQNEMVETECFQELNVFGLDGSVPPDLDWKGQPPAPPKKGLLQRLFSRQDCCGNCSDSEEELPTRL

Hck(h) (human) = Hck(h) (human) (UniProt P08631)
Hck(h) (human), sequence (P08631 251-518 limits assumed): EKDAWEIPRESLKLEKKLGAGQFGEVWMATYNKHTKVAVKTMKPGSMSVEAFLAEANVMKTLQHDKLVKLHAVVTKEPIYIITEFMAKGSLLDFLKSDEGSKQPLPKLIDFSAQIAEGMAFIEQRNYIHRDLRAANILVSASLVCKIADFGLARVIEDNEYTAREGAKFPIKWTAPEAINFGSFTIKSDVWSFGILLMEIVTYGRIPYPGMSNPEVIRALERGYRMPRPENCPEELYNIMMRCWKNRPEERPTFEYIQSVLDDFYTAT

IR(h), activated (human) = IR(h), activated (human) (UniProt P06213)
IR(h), activated (human), sequence (P06213 1005-1310 limits assumed): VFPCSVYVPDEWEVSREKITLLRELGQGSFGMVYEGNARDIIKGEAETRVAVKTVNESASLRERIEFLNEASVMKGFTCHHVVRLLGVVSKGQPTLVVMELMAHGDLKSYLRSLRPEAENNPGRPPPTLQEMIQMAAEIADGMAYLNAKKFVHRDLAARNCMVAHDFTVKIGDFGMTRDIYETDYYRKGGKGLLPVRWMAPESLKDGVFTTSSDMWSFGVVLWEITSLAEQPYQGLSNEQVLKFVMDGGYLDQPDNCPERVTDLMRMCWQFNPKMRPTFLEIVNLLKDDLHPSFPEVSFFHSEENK

Lck(h) (human) = Lck(h) (human) (UniProt P06239)
Lck(h) (human), sequence (P06239 whole entry): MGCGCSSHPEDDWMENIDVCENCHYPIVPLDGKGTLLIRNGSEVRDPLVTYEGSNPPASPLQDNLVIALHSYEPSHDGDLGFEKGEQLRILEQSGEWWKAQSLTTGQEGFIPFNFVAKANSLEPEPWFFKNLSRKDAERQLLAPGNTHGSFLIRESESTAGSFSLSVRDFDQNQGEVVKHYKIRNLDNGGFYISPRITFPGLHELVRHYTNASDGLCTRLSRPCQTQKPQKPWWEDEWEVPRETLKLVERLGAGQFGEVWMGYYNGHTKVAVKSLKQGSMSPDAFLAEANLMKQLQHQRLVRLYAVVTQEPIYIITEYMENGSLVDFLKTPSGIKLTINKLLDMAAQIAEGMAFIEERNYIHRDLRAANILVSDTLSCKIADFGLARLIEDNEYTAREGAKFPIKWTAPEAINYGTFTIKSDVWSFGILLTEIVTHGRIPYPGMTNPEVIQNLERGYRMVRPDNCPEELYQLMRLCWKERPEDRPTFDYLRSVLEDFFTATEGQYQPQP

MST2(h) (human) = target: T2, MST2(h) (human) (UniProt Q13188)
T2 sequence (looked up): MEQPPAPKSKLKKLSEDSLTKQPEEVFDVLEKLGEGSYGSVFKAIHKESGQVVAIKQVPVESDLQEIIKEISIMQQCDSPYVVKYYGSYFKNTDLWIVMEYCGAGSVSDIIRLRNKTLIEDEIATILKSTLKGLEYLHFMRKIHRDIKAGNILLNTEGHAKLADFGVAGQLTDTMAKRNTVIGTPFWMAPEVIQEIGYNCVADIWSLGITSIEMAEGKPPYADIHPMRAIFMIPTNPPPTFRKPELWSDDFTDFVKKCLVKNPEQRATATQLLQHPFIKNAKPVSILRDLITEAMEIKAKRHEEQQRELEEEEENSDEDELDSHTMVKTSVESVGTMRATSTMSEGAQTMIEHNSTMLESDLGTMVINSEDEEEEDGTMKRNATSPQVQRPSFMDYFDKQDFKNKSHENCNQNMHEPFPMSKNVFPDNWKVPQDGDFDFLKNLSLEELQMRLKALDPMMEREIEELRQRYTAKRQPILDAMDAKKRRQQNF

Met(D1246H)(h) (human) = Met(D1246H)(h) (human) (UniProt P08581)
PAK2(h) (human) = PAK2(h) (human) (UniProt Q13177)
PAK2(h) (human), sequence (Q13177 whole entry): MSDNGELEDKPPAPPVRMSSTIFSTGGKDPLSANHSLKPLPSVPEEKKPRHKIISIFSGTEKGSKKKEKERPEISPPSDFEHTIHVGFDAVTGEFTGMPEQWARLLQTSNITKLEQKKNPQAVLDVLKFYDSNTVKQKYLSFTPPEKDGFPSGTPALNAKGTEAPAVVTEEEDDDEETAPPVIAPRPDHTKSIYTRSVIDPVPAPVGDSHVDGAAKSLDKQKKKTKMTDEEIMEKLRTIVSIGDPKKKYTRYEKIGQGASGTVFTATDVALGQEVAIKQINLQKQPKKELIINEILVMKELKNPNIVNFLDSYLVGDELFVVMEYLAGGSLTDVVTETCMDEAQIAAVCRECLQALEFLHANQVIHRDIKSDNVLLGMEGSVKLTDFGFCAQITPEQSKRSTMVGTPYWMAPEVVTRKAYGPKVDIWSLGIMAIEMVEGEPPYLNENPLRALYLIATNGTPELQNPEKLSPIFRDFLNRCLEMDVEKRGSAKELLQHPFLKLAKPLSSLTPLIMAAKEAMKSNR

PKCζ(h) (human) = target: T3, PKCζ(h) (human) (UniProt Q05513)
T3 sequence (looked up): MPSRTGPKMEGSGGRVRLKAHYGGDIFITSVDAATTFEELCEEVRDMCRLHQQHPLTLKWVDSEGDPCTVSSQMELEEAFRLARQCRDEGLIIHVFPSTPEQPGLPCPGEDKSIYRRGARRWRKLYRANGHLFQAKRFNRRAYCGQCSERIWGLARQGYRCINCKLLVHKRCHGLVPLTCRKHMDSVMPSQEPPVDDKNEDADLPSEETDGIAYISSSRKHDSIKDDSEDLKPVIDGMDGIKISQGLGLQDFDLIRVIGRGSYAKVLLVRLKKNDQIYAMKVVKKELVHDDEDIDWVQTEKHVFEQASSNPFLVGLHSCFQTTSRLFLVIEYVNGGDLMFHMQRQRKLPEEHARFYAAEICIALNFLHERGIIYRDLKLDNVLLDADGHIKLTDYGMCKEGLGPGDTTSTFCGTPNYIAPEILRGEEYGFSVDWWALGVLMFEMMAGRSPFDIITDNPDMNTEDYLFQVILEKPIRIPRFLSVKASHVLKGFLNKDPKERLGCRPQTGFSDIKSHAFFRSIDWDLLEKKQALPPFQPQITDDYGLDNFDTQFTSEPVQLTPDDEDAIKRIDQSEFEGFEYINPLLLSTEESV

PKGη(h) (human) = target: PKGη(h) (human)
PTK5(h) (human) = PTK5(h) (human) (UniProt P42685)
PTK5(h) (human), sequence (P42685 whole entry): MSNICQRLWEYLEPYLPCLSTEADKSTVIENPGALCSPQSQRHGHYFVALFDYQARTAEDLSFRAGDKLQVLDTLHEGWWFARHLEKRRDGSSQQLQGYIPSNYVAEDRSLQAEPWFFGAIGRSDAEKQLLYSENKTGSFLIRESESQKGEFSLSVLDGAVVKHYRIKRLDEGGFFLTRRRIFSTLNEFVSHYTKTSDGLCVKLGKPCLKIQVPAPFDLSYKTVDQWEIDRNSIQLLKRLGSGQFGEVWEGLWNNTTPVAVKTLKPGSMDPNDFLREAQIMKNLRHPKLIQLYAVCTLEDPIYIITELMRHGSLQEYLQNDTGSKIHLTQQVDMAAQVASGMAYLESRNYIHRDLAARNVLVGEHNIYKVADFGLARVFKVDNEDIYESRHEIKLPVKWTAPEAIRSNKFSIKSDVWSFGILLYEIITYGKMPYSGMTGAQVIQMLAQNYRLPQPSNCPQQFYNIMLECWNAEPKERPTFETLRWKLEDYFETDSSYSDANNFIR

SGK3(h) (human) = target: T4, SGK3(h) (human) (UniProt Q96BR1)
T4 sequence (looked up): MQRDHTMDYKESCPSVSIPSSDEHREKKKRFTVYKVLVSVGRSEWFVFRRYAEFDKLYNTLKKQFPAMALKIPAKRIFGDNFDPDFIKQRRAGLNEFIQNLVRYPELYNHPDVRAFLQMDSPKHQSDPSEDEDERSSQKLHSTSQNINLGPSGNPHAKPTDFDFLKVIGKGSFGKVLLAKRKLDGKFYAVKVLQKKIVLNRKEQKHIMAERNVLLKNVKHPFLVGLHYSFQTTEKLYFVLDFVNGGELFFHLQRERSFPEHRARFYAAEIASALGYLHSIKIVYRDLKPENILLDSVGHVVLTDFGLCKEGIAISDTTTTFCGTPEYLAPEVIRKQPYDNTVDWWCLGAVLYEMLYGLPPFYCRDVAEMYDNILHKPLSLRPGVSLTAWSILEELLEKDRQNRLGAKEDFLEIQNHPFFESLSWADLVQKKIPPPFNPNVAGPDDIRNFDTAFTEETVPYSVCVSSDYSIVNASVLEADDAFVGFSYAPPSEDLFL

Src(1-530)(h) (human) = Src(1-530)(h) (human) (UniProt P12931)

CHK2(R145W)(h) (human), sequence (O96017 5-543 R145W limits assumed): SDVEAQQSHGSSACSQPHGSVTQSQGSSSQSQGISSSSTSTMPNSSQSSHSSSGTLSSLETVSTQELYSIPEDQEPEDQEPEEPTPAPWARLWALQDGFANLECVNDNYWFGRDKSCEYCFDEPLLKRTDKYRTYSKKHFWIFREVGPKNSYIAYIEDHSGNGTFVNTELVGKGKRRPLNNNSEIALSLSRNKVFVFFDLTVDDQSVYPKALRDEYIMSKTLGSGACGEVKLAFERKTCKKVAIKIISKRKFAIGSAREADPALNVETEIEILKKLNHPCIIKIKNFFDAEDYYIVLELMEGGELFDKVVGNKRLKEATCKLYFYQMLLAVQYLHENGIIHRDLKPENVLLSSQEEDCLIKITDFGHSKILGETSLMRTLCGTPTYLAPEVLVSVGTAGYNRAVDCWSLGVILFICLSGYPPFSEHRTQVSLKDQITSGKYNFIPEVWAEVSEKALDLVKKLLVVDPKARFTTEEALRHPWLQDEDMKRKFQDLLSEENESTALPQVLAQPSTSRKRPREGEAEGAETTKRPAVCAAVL

% activity, 100 µM (BRK(h) (human)): 41% | % activity, 100 µM (CDK2/cyclinE(h) (human)): 19% | % activity, 100 µM (CHK2(R145W)(h) (human)): 3% | % activity, 100 µM [1]: 53% | % activity, 100 µM (EphA5(h) (human)): 42% | % activity, 100 µM (EphB2(h) (human)): 70% | % activity, 100 µM (Fyn(h) (human)): 83% | % activity, 100 µM (GRK6(h) (human)): 174% | % activity, 100 µM (Hck(h) (human)): 78% | % activity, 100 µM (IR(h), activated (human)): 90% | % activity, 100 µM (Lck(h) (human)): 359% | % activity, 100 µM (MST2(h) (human)): 2% | % activity, 100 µM (Met(D1246H)(h) (human)): 150% | % activity, 100 µM (PAK2(h) (human)): 44% | % activity, 100 µM (PKCζ(h) (human)): 7% | % activity, 100 µM (PKGη(h) (human)): 45% | % activity, 100 µM (PTK5(h) (human)): 96% | % activity, 100 µM (SGK3(h) (human)): -3% | % activity, 100 µM (Src(1-530)(h) (human)): 21%
Substance: MMI-0500 (peptide)
